Data taken from the nanobody polyreactivity screen of Harvey et al. (2022).

Test: yeast display, Sf9 membrane polyspecificity reagent, FACS + sequencing; frameworks hold sequencing errors
Outline: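 Nanobodies from a synthetic yeast display library (Saccharomyces cerevisiae BJ5465), induced 36–48 hours with galactose, were stained 1 hour at 4 °C with 10% biotinylated, detergent-solubilized Sf9 membrane reagent, enriched on streptavidin microbeads, then FACS-sorted. Anti-HA (expression) and streptavidin (reagent binding) fluorescence set low and high (top ~1%) gates. Polyreactivity labels come from the gate of origin. Genes were colony-PCR amplified, MiSeq 2 × 250 sequenced and filtered by CDR length.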

| Sequence | polyreactivity (PSR sort gate) |
| --- | --- |
| QVQLVDSVGGLVQAGASLRLSCAASGSIFYYYAMGWYREAPGKERELVAAIRYRGGRTYYADSVKGRFTISRDNAKNTVYLQMNSLKPEDTAVYYCNADVIRRGGSRYSSGRDFDYWGQGTQVTVSS | high polyreactivity |
| QVQLVDSVGGLVQAGGSLRLSCAASGLTFLGNAMGWYRQATGKEREFVAGIDRSSVSTYADSVKGRFTISRDNAKNTVYLQMNSLKPEDTEVYYCAVVEYGIWVGWVPYATFGMNYWGQGTQVTVSS | high polyreactivity |
| QVQLVDSVRGLVQAGGSLRLSCAASGSIFNQNAMGWYRQAPGKERELVAVISSGGRTSYADSVKGRFTISRDNAKNTVYLQMNSLKPEDTAVYYCAADYGDRYWDYGYWGQGTQVTVSS | low polyreactivity |
| QVQLVDTGRGLVQAGGSLRLSCAPSGRTFGYNAMGWYRQAPGKERELVAAINWSGASTYYADSVKWRFTISRDNAKNTVYLQMKSLKPEDTAVYYCAADYSYIYGFDYWGQGTQVTVST | low polyreactivity |
| QVQLVEAGGGLVHAGGSLRLSCAASGRIFLAYAMGCYRQAPGKEMELVATIRSGGSTTYADSVKGRFTISRDNAKNSVYLQMNSLKTEDTAVYYCARRYQRKKPVFPHSQGAYDYWGQGTQVTVSS | low polyreactivity |
| QVQLVEAGGGLVQAGGSLRLSCAASGFTISSNAMGWYRQAPGKERELVAAISFNSTSTYYADSVKGRFTISRDNAKNSVYLQMNSLKPEDTAVYYCSADVPRVQSEPEYDYWGQGTQVTVSS | low polyreactivity |
| QVQLVEAGGGLVQAGGSLRLSCAASGGIFLPYAMGWYRQAPGKERELVAGITSVGSTYADSVKGRFTISRDNAKNTVYLQMNSLKPEDTAVYYCNADIYFVEYDYWGQGTQVTVSS | low polyreactivity |
| QVQLVEAGGGLVQAGGSLRLSCAASGSIFFIYAMGWYRQAPGKERELVAAITSGDRTYSADSVKGRFTISRDNAKNTVYLQMNSLKPEDTAVYYCNADYYISYWGQGTQVTVSS | low polyreactivity |
| QVQLVEAGGGLVQAGGSLRLSCAASGSTFSYAMGWYRQAPGKETELVAAITIGGRTSYADSVKGRFTISRDNAKNTVYLQMNSLKPEDTAVYYCAAEGYYPVYYYVYYGFDYWGQGTQVTVSS | low polyreactivity |
| QVQLVEAGGGLVQAGGSLRLSCAASGYIFAYYAMGWYRQAPGKERELVATIRSGGSTNYADSVKGRFTISRDNGKNTVYLQMNSLKPEDTAVYYCARDDATAGDYWGQGTQVTVSS | low polyreactivity |
| QVQLVEAGGGLVQAGGSLRLSCASSGRIFPFNAMGRYRQAPGKEREFVAAIRLSGTRKYYADSVKGRFTISRDNAKNTVYLQMNSLKPEDTAVYYCAAKYSGHYYNYDYWGQGTQVTVSS | high polyreactivity |
| QVQLVEAGGGLVQAGGTLRLSCAASGSNFSENTMGWYRPAPGKKRELVADITSGGSTNYADSVKGRFTISRDNAKNTVYLQMNSMKAEVTAVYYCAADYNGEYDYWGQGSQVTVSS | low polyreactivity |
| QVQLVELGGGLVQAGGSLRLSCAASGLTLYYYAMGWYRQEPGKERELVAAINRGGSTYYADSVKGRFTISRDNAKNTVYLQMNSLKPEATAVYYCAVDYGVRDLTYYYWGQGTQVTVSS | low polyreactivity |
| QVQLVESAAGLVQAGGSLRLSCAASGFIFWYYAMGWSRQAPGKERELVAAINSSGGSTYYADSVKGRFSISRDNAKNTVYLQMNSLKPEDSAVYYCAARAYQRGNYWGQGTQVTVSS | high polyreactivity |
| QVQLVESAAGLVQAGGSLRLSCAASGLNFASYGMGGYRQAPGKERELVAAISSSVGNTYYADSVKGRFTISRDYAKNTVYLQMNSLNPEDTAVYYCAAAKRSGYTGFKYYYWGQGTQVTVSS | high polyreactivity |
| QVQLVESAAGLVQAGGSLRLSCAASGSTFAGNAMGWYRQAPGKERELVAAIDSSTGSTYYADSVKGRFTISRDNAKNTVYLQMNSLKPEDTAVYYCNKTSFLVKLDYWGQGTQVTVSS | low polyreactivity |

| Sequence | polyreactivity (PSR sort gate) |
| --- | --- |
| QVQLVESAAGLVQAGGSLRLTCAASGLTFTTYAKGWYTQSPRKDRELVAAISRRGSRTYYADSVKGRFTISRDNAKNTVYLQMQSLKPDDTAVYYCNALTGSFKTDSFDYWGQGTQVTVSS | high polyreactivity |
| QVQLVESAAGLVQAVGSHRLSCAASRLTFGFYAMGSDRQARGKESELVAAIDFSDGSTYYADSVKGRFTISRDNAKKTVYLQMNSLKPEDTAVYYCAADDPGLGYWSLTWYDYWGQGTQVTVSS | high polyreactivity |
| QVQLVESAAVLVQAGGRLRLSCADSGRIFTDNGMGWYRQAPGKERELVAAISESGGSTYYADSVKGRFTISRDNAKNTVYLQMNSLKPEDTAVYYCAADLYWYGYHYDYWGQGTQVTVSS | low polyreactivity |
| QVQLVESAGALVQEGGSLRLICAASGFTFLKNAMGWYRQAPGKERELVDGISRSGGSTYYADSVKRRFTISRDKAKNPDYLQMNSQKPEDPAVYYCAAGTVQSYTWLPTRGDYWGQGSQVTVSS | high polyreactivity |
| QVQLVESAGCLVQAGGSLRLSCAASGRTFAVYAMGWSRPAPGKQREMVAAITLGASRSYYADSVKGRFTISRDNAKNTVYLQMNRLKPEDSAVYYWNDVGRLNVDSYLNDYWGKGTQVTVSS | low polyreactivity |
| QVQLVESAGCLVQAGGSLRLSCAASGSIISAYARGWYRQAPGKERQLVAAITRSGGSTYYADSVKGRFTISRDYAKITVYLQMNSLKPEDTAVYYCAARSYVHVFVRMYYWGQGTQVTVSS | high polyreactivity |
| QVQLVESAGGIVQAGGSLRLSCDASGSIFYYYAMGWYRQAPGKERELVADISYRGSRTFYADSVKGLFTISRDIAKNTVYLQMNSLKPEDTEVYYCAAAYSRYTSRFYYWGQGTQVTVSS | high polyreactivity |
| QVQLVESAGGLDQAGGSLRLICAASGGTFSFYAMGWYRHAPGKEREFVAAITASDGSTYADSVKGRFTISRDNAKNTVYLQMNSLKPEDTAVYYCAVAGGEFSSYGYWGQGTQVTVSS | low polyreactivity |
| QVQLVESAGGLDQAGGSLRLICDASGFISRNAMGWYTQAPGKERELVAAITRGGSTNYADSVKGRFTISRDNAKNTVYLQMNSLKPEDSAVYYCNQQRQGNSRSYYQTYYGMYYWGQGTQVTVSS | high polyreactivity |
| QVQLVESAGGLGQAGGSLRLSSAASGITTRTYAMGWYRQARGNERELVAAISDSGDRTYYADSVKGRFTISRDNAKNTVYLQMNSLKPEETAVYYCAVHAPGPRCEYWGQGTQVTVSS | low polyreactivity |
| QVQLVESAGGLVHARGSLRLSCAASGRIFERNAMGSYRQAPGKERELVARITSGGGTYYADSVKGRFTISRDNAKNTVYLQMNSLKPEDTAVYYCAVQYLYRKYRRYDYWGLGTQVTVSS | high polyreactivity |
| QVQLVESAGGLVPAGGSLRLSCAASGSIIITKAMGWYRQAPGKERELVAAISWTDDITYYADSVKGRFTISRDNAKNTVYLQMNSLKPEDTAVYYCAAEETSYAYDYWGQGTQVTVSS | low polyreactivity |
| QVQLVESAGGLVQAAASLRLSCADSGITFVVYTMGWYRQAPGKERELVASISISGDSTNYADSVKGRFTISRDNAKNTVYLQMNSLKPEDTAVYYCNAAFYHFQFPWIAYDYWGQGTQVTVSS | low polyreactivity |
| QVQLVESAGGLVQAGASLRLSCAASGYIFFGNAMGWYRQAPGKERELVAAIRWRGTSTYYADSVKGRFTISRDNAKNTVYLQMNSLKPEDSAVYYCAADVVRSNFYGTFLYDYDYWGQGTQVTVSS | low polyreactivity |
| QVQLVESAGGLVQAGGILRLSCAASGITIYRYAMGWYRQAPGKERELVADISSGGGTTYYADSVKGRFTISRYNAKNTVYLQMNSQKPEDTAVYYCAADYGFRYPLYDYWGQGTQVTVSS | low polyreactivity |
| QVQLVESAGGLVQAGGILRLSCAASGRTFEGNPMGWYRQAPGKERELVAAITSGGRTNYADSVKGRLTISRDNAKNTVYLQMNSLKPEDTAVYYCAATSTYRSYREYDYWGQGTQVTVSS | low polyreactivity |
